Values quoted from earlier work as cited in publication PMC9542338.
Read-outs that look alike come from different tables or passages of the source.

Tests used:
CD155 (Homo sapiens) [1] = target: CD155 (Homo sapiens) (UniProt P15151)
CD155 (Homo sapiens) [2] = target: CD155 (Homo sapiens) (UniProt P15151); remark: listed apart in the source

UniProt P15151, sequence (P15151 21-343): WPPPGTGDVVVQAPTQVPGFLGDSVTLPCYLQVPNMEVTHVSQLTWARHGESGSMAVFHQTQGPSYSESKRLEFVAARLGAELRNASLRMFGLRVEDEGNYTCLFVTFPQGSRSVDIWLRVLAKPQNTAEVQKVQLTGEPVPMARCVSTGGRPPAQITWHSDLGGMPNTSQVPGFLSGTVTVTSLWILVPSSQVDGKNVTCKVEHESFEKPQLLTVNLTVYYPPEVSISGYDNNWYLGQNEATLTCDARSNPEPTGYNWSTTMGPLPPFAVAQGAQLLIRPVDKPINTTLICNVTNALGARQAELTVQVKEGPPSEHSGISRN

Row | Substance | Kd (CD155 (Homo sapiens) [1]) [nM] | Kd (CD155 (Homo sapiens) [2]) [nM]
1 | CD226 (from UniProt Q15762) | 115 | –
2 | TIGIT (from UniProt Q495A1) | – | 2
